Results on 68 sequences are retold here after the domain aggregation screens of Martell et al. (2025).

The data set is described as follows: soluble fraction after stress (log2 fold change); higher = more stays soluble; pooled small domains, quantitative proteomics. As to conditions: stress: pH 4. The gist of the method: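 Custom libraries of small protein domains were pooled and exposed to pH 4. High-throughput quantitative proteomics then measured the log2 fold change in the amount of each domain still soluble, with higher values meaning more stayed soluble. This soluble-fraction fold change stands for aggregation propensity.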
Regarding “HMATKVNSGVTVRDLAELLGLSSADLIKKLMTMGEMATLTQTLTDDSVKAIADEYDRKIEIVSAAQ”, the “soluble fraction (log2)” value was -0.771.
The result for “HMATLTPLGRLQLARYHAQERATLAATAERFQVSTTTVRRWVGRYHQVVAAGGRPTTADMQDRPSRP” reads -0.00504; that for “HMATMSIDERILEIRSRAGLTQQEMADRLFVTRQAVSRWERGETVPGIDTLRLIAEAFDVRVDQILEL”, -1.11.
The same measure for “HMATQMSSARRGIATDEMKQVAKDEDVTLDWLLPKIAIGSIIIPSNNVRPQKIHNVGIGKGMKTKVN”: -0.246.
The same measure for “HMATTTEPTSPPAATASLEAKINWLFLIFRNKKTVTASEQKFHAEDASTVVGKETLTDDGTTMTKGETAAG”: -0.437.
For the sequence “HMATVELELKPEELRAGMILTKDLISGTGMMLLNKGVTLDNVKVEAIQRYYQLDPPLHGVFALVHGK”, the “soluble fraction (log2)” value was -0.896.
As to “HMATVGENIRRYRKAQNLSAAKLAEKVGLTQGAILHYERGIRTPGISQLEKIAHALNVSPRM”, the “soluble fraction (log2)” value amounted to 0.114.
The result for “HMATVPNVVGLSEEKAKSRLANNGLNVSVTTEEVSDKSKDGIVSSQTSEGDTVKQGATITITVGKYVEK” reads -0.0691; that for “HMATYDIDALKVDLPSAKELAQFVYDKTDGLVSLDLIGKPKEEQYIVAKNALEGKKVPAEYLTGFNPY”, -0.273; that for “HMATYTPYDKQGAKLWRVTAYLGMDSVTGKQRNMKKGGFKTKKEAQLYYNQVKLDFENGTLDQ”, 0.22.
“HMAVEQLKSQIGGFLKANREQSFSAQNMADGLRMNSAAGYQDVVNAMNALVRDGEAVEKDGQFSYNVN”: the “soluble fraction (log2)” value is -0.0292.
“HMAVETYRVKKSDTMQTIADRFGLSVEELLEYNQAYKTRELRARDILIIPSRKERKKLQQQKAQAAAQVVQ”: the “soluble fraction (log2)” value was determined as 0.404.
The result for “HMAVGTASNLIGKDIEAYAPIDGSQSSDDTKTISGKVESVHIKDGVVYMNVKDSQSENIIEVEYGALIKVN” reads 0.247; that for “HMAVKPIDRLRSLMAESNVTDAELQKVVADKGHYAADAPIDSYSEKFISGWLIKYWSQILNLINADRTVL”, -0.0558.
In the case of “HMAVKTEHGRIWKALPEGQDGYREDVPMFTSKSMYDGSAGIGIFLIRLYEATSDERWLKEAEEAAAHII”, the “soluble fraction (log2)” value amounted to 0.308.
On to “HMAVLEGPAGKLGIVRFEANRSFTGMGHERFSSADQAFGTKPAAVVASRLFATGQVAGVHVYGNIITVELA”, for which the “soluble fraction (log2)” value is at least 0.43.
The result for “HMAVNDPDEKFIELGIPADWVQVVRKAGFQTVEALKTVENPNKLHQELSGLNKKMKLGLKTLSQDEVKDWF” reads -0.0206.
Take “HMAVPMTPGELVGSRVRVLWWKDGRGEVVALARGHQATLPARSEEPLRTGADAVVLEADEGTLVVTS”: the “soluble fraction (log2)” value was -0.192.
Consider “HMAVSGRMMVYEYIRQQMREGSLLPGSVLDLPAISHKLGISNTPLRDSLIRLEAEGYLTIYPRSKVVIN”, for which the “soluble fraction (log2)” value is -0.254.
The result for “HMAVTGRVDLRIKPWGYVSVDGAAKVSSPPTMQLKLAPGRHEIEITNPAGAAVTKTVDVIAGKSVTVQHN” reads 0.19; that for “HMAVTKVKVITESSNLNIRKGPGTDQPIVGKAAHHEIITLVNKSNDQWWLVRTNDGEEGYSYSRYLEPVT”, -0.153; that for “HMAVVEVATTTATEYKVEKGHHFKVGDFVMFKTGAKSYAITAIDTTSPIFDKITVGTTLGEAIPVGGTLM”, -1.45.
In the case of “HMAVVIPDVKGMTIEEAAPFLAEKGIRYNIIDSVFSKDVDPGAIVEIVPTPGSKVKEGRIVFVTINAK”, the “soluble fraction (log2)” value was -0.774.
On to “HMAVVQMVDRPGGLDELLKDVVRAGVNFANAYGRTASDGNSAFFVIDIQDIPGARQKLADVGLQILADEAV”, for which the “soluble fraction (log2)” value is -0.512.
Regarding “HMAWAVDVGVVGLFPGKAVLVIDGGAPRTVPVGANVGGVRLLAVDQGSATVEIGGKRQRLAIGQHAH”, the “soluble fraction (log2)” value came to 0.22.
For the sequence “HMAWIGEHTVTSEDTLSHIALKFYGHATPPYYKLIYEANKAIIGDNMNIIVPGQVLRIPALPEEL”, the “soluble fraction (log2)” value is -0.592.
As for “HMAYLTVPAVIAKDTKKSIQLLESKGFEVVIQDSIYTDTLARGTVIKQLPDPNATVKINRTVYLTVNRYTP”, the “soluble fraction (log2)” value is -0.369.
For “HMAYQQITIKANVVNVRQGPGLSYDVMSQANKGETMNVISQKNNWYQVRLSGDKIGWVASWLVDNT”, the “soluble fraction (log2)” value was at least 0.43.
The result for “HMAYWVVKNNQVSLQINRSNYQITSTARALSNGNLGDEIDVKVLQSGVIKKAVVIGKGQVELLR” reads 0.163; that for “HMDAHIGTLTPRERETLHHLAIGHSNKVIAKKLNLAESTVKAYVQSILRKLGLSSRVQAAVYAIQHDIR”, -0.23; that for “HMDAIDPKTVTSWADLWKPEYKSSLLLTDDAREVFQMALRKLGYSGNTTDPKEIEAAYNELKKLMPNVAAF”, -0.474.
On to “HMDAIDQDGNHMTFKRWGEQLQEAFQALEAYDTDKAKTILNELIKFPIDSDLNNALKGILSNIDEMMA”, for which the “soluble fraction (log2)” value was -0.68.
The result for “HMDAINITTYKGQITLTGTKTGTLVGIYNTAGMLVKSMMSKGEKLYFDNLPSGVYIIKVGEEEPRKVQVI” reads at least 0.43.
For “HMDAKIEYTMSDLIENRLINSDDASMRREKLSEILKIGYGNGKKTLHKLNSFGITREEFEEAMKEVNSH”, the “soluble fraction (log2)” value is -0.0624.
“HMDAKIKDYADAYAKMDPQQAASLFNNMTTGSLDLVAKILENIPANKRAAILEKMDVNAAAQVTEKMR”: the “soluble fraction (log2)” value was 0.188.
In the case of “HMDAKSRFQEWVQAETGITPTYRIIGDSGPDHAKTFIAQVLLGERVVGEGVGSSKRAAEQAAAQAALAAM”, the “soluble fraction (log2)” value is -0.346.
Turning to “HMDAMMQRLERLKELASSADGSKDYLILGPLRRDLAKLMALEDPKLRQGAEELDRKILAILS”, the “soluble fraction (log2)” value is -0.437.
On to “HMDAPHPSVVQVYFESRDRSWTYYNDRFDLHEGDLVYVEGKLEGVRGRVVEVSYNFRIKLADYKRVIAVA”, for which the “soluble fraction (log2)” value is -0.122.
On to “HMDASSAVQFGSLLRDARRRQGLSQAELGGDKYSGSYISHLESGRRVATPEVIEFLSRRLGVSPLEWGVS”, for which the “soluble fraction (log2)” value was -0.026.
“HMDASSTGFLGKHVQIVGLVSQPHLNGRRGVASRFDSNRRRYLVRLDEIDGHAEVVAFRPDNLVLSNLL”: the “soluble fraction (log2)” value is -0.0982.
With “HMDASVTIEQVERMVQANVSDDVIISQLQGRGAAQNLSTDDIINLTQKGISAEVIKAYQSAG”, the “soluble fraction (log2)” value was -0.934.
With “HMDAVLMEYDRLLALELTEDPDVYQDLLDKVREQSLGADGRVTDKYREKFDAVATRFDDYEDNYQW”, the “soluble fraction (log2)” value is -0.62.
The same measure for “HMDAVQAGKRVLIVDDLIATGGTAKAATDLIEKAGGTVVGFSFVMRLDGLDGLDKLDGKPSSSLIAMP”: -0.0677; for “HMDAYMGEAKDEETFAEEYLNDSGLLNEIPESVARYFDIVAYARDLLIGDFSLHDGHVFNMT”: -0.377; for “HMDDAFLNKEMLKQALENLNEREKKLIYLRFYEGLTQKEIADRLSLSQMHVSRLLNESLNKLRRKI”: -0.0579.
With “HMDDATDLPYQEFRTQVSDGQVKIAQFNNNTGKITFESISGDKFKTSGPLELSSDDERLFLENIEDFKFFT”, the “soluble fraction (log2)” value is -1.1.
As for “HMDDATDVPYQEFRTQVTSGQVEIAQFNNNTGKISFQSTSGEKFETSGPLELSSDDERLFLENIEDFKFFT”, the “soluble fraction (log2)” value was -1.63.
Consider “HMDDATIKVNIAAKFLNAGNNLFVDIDTTVLEGRVLLTGLVDTQEVRIDAVRLVWEVEGIREVINEIEIG”, for which the “soluble fraction (log2)” value is -2.1.
On to “HMDDATTQLADRLLDLRRKAGYSQEQLADLLGVSRQAISKWEGAQGRPEVDNVVKLAQIYRVSTDFILTGS”, for which the “soluble fraction (log2)” value is -0.656.
The result for “HMDDAVSHPDAGHIVTVTKVSADGTAEVMYRGASWRAKTADGSPLTAGSARIVRVDGAALVVEP” reads 0.116; that for “HMDDDDPDQEIAQYYEKLRAMNPDEETKQKLSDEINKLSKMMYSSQEAMVSRNYLDTVFSLPWHQF”, -1.37.
The result for “HMDDEELDALKGIPANEYTQEQIKQISEVFHTLQKNEVKDWLNSLQLRNIELPFELRNEVFSQ” reads -0.43; that for “HMDDFPLKRGSKGNRVTLLQNALVKKYGAGILPKYGVDGMFGKEVEAALVHAKIPTTINEANYTKIV”, 0.104.
The result for “HMDDFSETLLQYIKEKGGHISLNDKTDAGVIYETFGVSKKTFKKAVGDLYKKRLIVLEDTGIRL” reads 0.0848; that for “HMDDHLSFLAARLPDGASFDTDFDALGIDSFGMIALRAEVEERLGEQIADSDWTKVERPSEILAMLERK”, -1.76; that for “HMDDLATAYKAMGVDASISDKDLKRAYRKLMSQHHPDKMIAKGVPADMVAMATEKTQEIQAAYDLIERSR”, 0.0752.
Consider “HMDDLIIQIELKQEGLEITGLKVLLKEDSVIDEQVKQTIRRKIERFLVNLYGNPNVYVSKFSMGI”, for which the “soluble fraction (log2)” value was -1.36.
As to “HMDDLTTASIKQQLKALIDEENKNKPLSDQKLTDALKAQGIDISRRTVAKYREAMNIPGSSKRKRF”, the “soluble fraction (log2)” value amounted to 0.0697.
“HMDDMVLEIGPGIGTMTQYLAEAAGKVVAVEIDRNLLPILQETLADYDNVKVIHADVLSLDLEKLVQEE”: the “soluble fraction (log2)” value is -0.868.
In the case of “HMDDPDALITDSQLKAIHVLLGKLKIDDNLKHAYIADVLQLKDIPETLKTLTKHQGSTIIERLNLLIKDA”, the “soluble fraction (log2)” value was -0.0657.
Turning to “HMDDPLSQLTPREREVLELMASGASNQGIADALVITVRAVEKYVSSIFGKLGLPSTGSESRRVLAVLTFLR”, the “soluble fraction (log2)” value is -1.32.
In the case of “HMDDPYAGLRQRAYLFLRERDGAVPEEELIEHVFGSSGNPALWRPLLRQVLGADDRLDLRADGYWALRG”, the “soluble fraction (log2)” value was -0.839.
Regarding “HMDDSPTARALRTLDLIHNRPGITAAELADRLGVTERAVRRYVLTLRDAGVPVLGTPGRYGGYQVGK”, the “soluble fraction (log2)” value is -0.0455.
In the case of “HMDDSVTFSEFVRMVDSGQVESVRITGNEVTGSDSTGNTFRTFVPPQYEGLVNRLVERDVAVTAEE”, the “soluble fraction (log2)” value was -0.284.
Take “HMDDSVVFSLNAKGIRLTGAGKYGEAIALFDKAIAAKPGLSGLYFNRAEARRLSGDLPGARSDLEQALAI”: the “soluble fraction (log2)” value is -0.113.
The result for “HMDDTRLELTLLGKIHNDEEINKQSHINVNIKNGVILLTGESPRREITERILTLARTFEHTRQIVNQIAT” reads -0.515.
Consider “HMDDVIDVYATYDKSAEGVLSNIQLFSNQKKTTPITPESGKIYIDVEGNYQFRWTGTQYATV”, for which the “soluble fraction (log2)” value was -0.09.
In the case of “HMDDYRSLRGQEKAAIFLMSLSQEQAAKIFANLDDEEIKEISQAMSSLGTVGSEIIERLFVEFAEQVSS”, the “soluble fraction (log2)” value is -1.08.
